Reference: patent US20250043017A1 (Regeneron, published 2025)

B1: mAb25921 (antibody, V domains shown)
VH: QVQLVQSGAEVKKPGASVKVSCKASAYTFTSYGFSWVRQAPGQGLEWMGWISTSNGYTNYAQKIQDRVTMTTDTSTSTAYMELRSLRSDDTAVYYCASLSNWVSFFDYWGQGTLVTVSS
VL: not shown
notes: bivalent parental anti-4-1BB antibody of REGN6191; also called 25921P2; a-4-1BB
B2: mAb25907 (antibody, V domains shown)
VH: EVQLVESGGGLVQPGGSLRLSCEASGFTFSSYEMNWVRQAPGKGLEWISHISSSGSSIYYADSVQGRFTISRDKAKNSLYLQMNSLRAEDTAVYYCTREGFEYGSSSGLKYYYYGLDVWGQGTTVTVSS
VL: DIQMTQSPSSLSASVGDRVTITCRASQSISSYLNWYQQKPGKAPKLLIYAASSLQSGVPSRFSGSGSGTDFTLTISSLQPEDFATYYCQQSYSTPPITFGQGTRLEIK
notes: bivalent parental anti-4-1BB antibody of REGN6190; also called 25907P2
B3: mAb25898 (antibody, V domains shown)
VH: QVQLVESGGDVVQPGRSLRLSCTASGFTFSSFGMHWVRQAPGKGLEWVTFLSYDGSYKYYADSVKGRFTISRDNSKNTLYLQMNSLRAEDTAIFYCARDWLDYWGQGTLVTVSS
VL: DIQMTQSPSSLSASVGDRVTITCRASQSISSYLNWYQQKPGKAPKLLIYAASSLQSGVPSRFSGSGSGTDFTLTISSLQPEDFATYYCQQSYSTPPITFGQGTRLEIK
notes: bivalent parental anti-4-1BB antibody of REGN6189; also called 25898P2; parental bivalent 4-1BB antibody
B4: mAb25894 (antibody, V domains shown)
VH: EVQLVESGGGLVQPGGSLRLSCVASGFTFSSYEMNWVRQAPGKGLEWVSYISNSGTTIYYAGSVKGRFTISRDNAKKSLYLHMNSLRAEDTAVYYCAREGTIFGTVHYYFALDVWGQGTTVTVSS
VL: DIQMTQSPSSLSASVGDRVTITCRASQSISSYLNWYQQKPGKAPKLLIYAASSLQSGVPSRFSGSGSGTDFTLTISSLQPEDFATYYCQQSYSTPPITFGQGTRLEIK
notes: bivalent parental anti-4-1BB antibody of REGN6188; also called 25894P2; parental bivalent 4-1BB antibody
B5: REGN6188 (bispecific antibody, human IgG4 S228P, kappa)
heavy 1: EVQLVESGGGLVQPGRSLRLSCAASGFTFDDYALHWVRQAPGKGLEWVSGISWTGGTIDYADSVKGRFTISRDNAKNSLYLQMSSLRTEDTAIYYCTRDIRGNWKYGGWFDPWGQGTLVTVSSASTKGPSVFPLAPCSRSTSESTAALGCLVKDYFPEPVTVSWNSGALTSGVHTFPAVLQSSGLYSLSSVVTVPSSSLGTKTYTCNVDHKPSNTKVDKRVESKYGPPCPPCPAPPVAGPSVFLFPPKPKDTLMISRTPEVTCVVVDVSQEDPEVQFNWYVDGVEVHNAKTKPREEQFNSTYRVVSVLTVLHQDWLNGKEYKCKVSNKGLPSSIEKTISKAKGQPREPQVYTLPPSQEEMTKNQVSLTCLVKGFYPSDIAVEWESNGQPENNYKTTPPVLDSDGSFFLYSRLTVDKSRWQEGNVFSCSVMHEALHNHYTQKSLSLSLGK
heavy 2: EVQLVESGGGLVQPGGSLRLSCVASGFTFSSYEMNWVRQAPGKGLEWVSYISNSGTTIYYAGSVKGRFTISRDNAKKSLYLHMNSLRAEDTAVYYCAREGTIFGTVHYYFALDVWGQGTTVTVSSASTKGPSVFPLAPCSRSTSESTAALGCLVKDYFPEPVTVSWNSGALTSGVHTFPAVLQSSGLYSLSSVVTVPSSSLGTKTYTCNVDHKPSNTKVDKRVESKYGPPCPPCPAPPVAGPSVFLFPPKPKDTLMISRTPEVTCVVVDVSQEDPEVQFNWYVDGVEVHNAKTKPREEQFNSTYRVVSVLTVLHQDWLNGKEYKCKVSNKGLPSSIEKTISKAKGQPREPQVYTLPPSQEEMTKNQVSLTCLVKGFYPSDIAVEWESNGQPENNYKTTPPVLDSDGSFFLYSRLTVDKSRWQEGNVFSCSVMHEALHNRFTQKSLSLSPGK
light: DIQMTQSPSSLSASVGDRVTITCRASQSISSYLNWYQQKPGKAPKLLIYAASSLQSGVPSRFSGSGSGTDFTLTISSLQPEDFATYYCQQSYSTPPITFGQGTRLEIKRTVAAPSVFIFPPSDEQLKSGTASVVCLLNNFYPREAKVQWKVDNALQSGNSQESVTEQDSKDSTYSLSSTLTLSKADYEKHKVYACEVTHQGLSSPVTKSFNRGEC
notes: common light chain 1-39; also called R6188; PD-L1x4-1BB REGN6188
B6: mAb9373 (antibody, V domains shown)
VH: QVQLVQSGTEVKKPGASVKVSCKASGYTFTAYYMHWVRQAPGQGLDWMGWISPNSGFTNYAQKFQGRVTMTRDTSINTFYMELSGLRSDDTAVYYCAREGSTHHNSFDPWGQGTLVTVSS
VL: not shown

Legend:
[1] = molecular target: T1, human 4-1BB expressed with a C-terminal myc-myc-hexahistidine tag (h4-1BB.mmH) (human); assay: blocking ELISA, 0.25 nM h4-1BB-mmh binding to coated 6His-Flag-h4-1BBL
T1 construct: also called hCD137 (4-1BB) mmH
T1 sequence (chain, as listed by the source limits assumed): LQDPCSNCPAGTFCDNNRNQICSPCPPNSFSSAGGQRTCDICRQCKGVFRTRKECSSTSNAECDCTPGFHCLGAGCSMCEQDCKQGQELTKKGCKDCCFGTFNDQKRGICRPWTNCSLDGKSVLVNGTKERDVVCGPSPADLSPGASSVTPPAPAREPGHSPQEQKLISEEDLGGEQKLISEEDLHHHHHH
Protocol: The 4-1BB blocking assay was performed similarly to the PD-L1 blocking assay. 6His-Flag-h4-1BBL protein ([…] in PBS) was coated onto a 96-well microtiter plate overnight at 4 °C. […] The plates were developed using TMB substrate solution (BD Biosciences) and the absorbance at 450 nm was measured on a SpectraMax I3x plate reader.
Binding data were analyzed using a sigmoidal (four-parameter logistic) dose-response model with GraphPad Prism™ software. […] The percent blocking of tested antibodies at the highest tested concentration of 100 nM was calculated based on the formula shown below: […]

[2] = molecular target: T2, human 4-1BB on cells (human, UniProt Q07011 24-255); assay: cell-based or functional assay
T2 sequence (Q07011 24-255): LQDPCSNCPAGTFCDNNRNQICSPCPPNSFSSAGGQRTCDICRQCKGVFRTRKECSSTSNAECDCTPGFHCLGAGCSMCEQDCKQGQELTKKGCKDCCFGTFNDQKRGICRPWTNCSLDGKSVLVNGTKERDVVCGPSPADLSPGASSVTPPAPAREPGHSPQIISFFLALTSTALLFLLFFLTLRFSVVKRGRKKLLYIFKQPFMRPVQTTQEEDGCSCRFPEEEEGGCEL

[3] = molecular target: T2, human 4-1BB on cells; assay: flow cytometry, Jurkat/NFkB-Luc/h41BB cells
Protocol: Binding was detected by using a labeled secondary antibody and measuring fluorescence on a flow cytometer.
Assay set up: OVCAR-3+/−PD-L1 cells were lifted with trypsin, washed and resuspended in stain buffer (2% FBS in PBS). OVCAR-3 and Jurkat/NFkB-Luc/h41BB cells were counted and added to wells at 200,000 cells/well. Cells, in wells of 96-well round bottom plates, were pelleted by centrifugation and resuspended in 150 ul stain buffer (PBS containing 2% FBS). Plates were once again centrifuged and subsequently 100 ul of stain buffer alone or stain buffer containing antibody, titrated from 200 nM to 12 pM in a 9-point 1:4 dose titration were added to cells. Cells and antibodies were incubated for 30 min on ice and then washed in stain buffer. Cells were resuspended in 2 μg/ml allophycocyanin (APC) conjugated goat-anti human secondary antibody. A secondary antibody alone control was included. Cells and secondary were incubated for 30 min on ice and then washed in stain buffer. After a subsequent wash with PBS (containing no FBS), cells were resuspended in viability dye (reconstituted in DMSO according to the manufacturer's protocol and diluted 1:1000 in PBS) and incubated for 20 min on ice. They were then washed with stain buffer and resuspended in 2% PFA for 30 min at 4 C. After washing they were filtered and analyzed by flow cytometry. EC₅₀ values of the antibodies were determined from a 4 parameter logistic equation over a 9-point dose response curve (including secondary only control) using GraphPad Prism software.

[4] = molecular target: T2, human 4-1BB on cells; assay: cell-based or functional assay; remark: listed apart in the source
[5] = molecular target: T1, human 4-1BB expressed with a C-terminal …; assay: SPR Biacore, 25 C, antibody captured via anti-hFc, h4-1BB.mmH as analyte
Protocol: The CM5 Biacore sensor surface was derivatized by amine coupling with a monoclonal mouse anti-human Fc antibody. All Biacore binding studies were performed in a buffer composed of 0.01M HEPES pH 7.4, 0.15M NaCl, 3 mM EDTA, 0.05% v/v Surfactant P20 (HBS-EP running buffer). […] Antibody-reagent association was monitored for 5 minutes while dissociation in HBS-EP running buffer was monitored for 10 minutes. At the end of each cycle, the antibody capture surface was regenerated using a 10 sec injection of 20 mM phosphoric acid. All binding kinetics experiments were performed at 25° C.
Data analysis: The specific SPR-Biacore sensorgrams were obtained by a double referencing procedure. The double referencing was performed by first subtracting the signal of each injection over a reference surface (anti-hFc or anti-mFc) from the signal over the experimental surface (anti-hFc-captured anti-PD-L1×4-1BB antibodies) thereby removing contributions from refractive index changes. In addition, running buffer injections were performed to allow subtraction of the signal changes resulting from the dissociation of captured antibodies or antigens from the coupled anti-hFc or anti-mFc surface. Kinetic association (kₐ) and dissociation (kd) rate constants were determined by fitting the real-time sensorgrams to a 1:1 binding model using Scrubber v2.0c curve fitting software. Binding dissociation equilibrium constants (KD) and dissociative half-lives (t½) were calculated from the kinetic rate constants as: […]

| Binder | % Blocking at 100 nM mAb [1] | IC50 [1] | IL2 release MAX, human CD3+ T cells + HEK293/hCD20/hPSMA + CD20xCD3 [2] | IL2 release MAX, human CD3+ T cells + HEK293/hCD20/hPSMA, no CD20xCD3 [2] | IL2 release MAX, human CD3+ T cells + HEK293/hCD20/hPSMA/hPD-L1 + CD20xCD3 [2] | IL2 release MAX, human CD3+ T cells + HEK293/hCD20/hPSMA/hPD-L1, no CD20xCD3 [2] | EC50 [3] | Fold change (max MFI over secondary antibody alone) [3] | Max [gMFI] [3] | NFkB-luciferase MAX (RLU), Jurkat/NFkB-Luc/h41BB + HEK293/hCD20/hPSMA [4] | NFkB-luciferase MAX (RLU), Jurkat/NFkB-Luc/h41BB + HEK293/hCD20/hPSMA/hPD-L1 [4] | 270 nM h4-1BB-mmH Bind (RU) [5] | Kd [5] | koff [5] | kon [5] | t½ [5] | NFkB-luciferase EC50, Jurkat/NFkB-Luc/h41BB + HEK293/hCD20/hPSMA [4] | IL2 release EC50, human CD3+ T cells + HEK293/hCD20/hPSMA/hPD-L1 + CD20xCD3 [2] | NFkB-luciferase EC50, Jurkat/NFkB-Luc/h41BB + HEK293/hCD20/hPSMA/hPD-L1 [4] |
| --- | --- | --- | --- | --- | --- | --- | --- | --- | --- | --- | --- | --- | --- | --- | --- | --- | --- | --- | --- |
| B1 | 94% | 0.75 nM | 10 pg/mL | 1 pg/mL | 5.8 pg/mL | 1 pg/mL | 0.287 nM | 76.9 fold | 170000 gMFI | 18000 RLU | 18000 RLU |  |  |  |  |  |  |  |  |
| B2 | 87% |  | 9.3 pg/mL | 1.6 pg/mL | 4.6 pg/mL | 1.6 pg/mL | 0.00508 nM | 60.5 fold | 140000 gMFI | 18500 RLU | 18100 RLU | 67.5 RU | 34.2 nM | 0.0196 s⁻¹ | 572000 M⁻¹ s⁻¹ | 0.6 min |  |  |  |
| B3 | 70% |  | 8.4 pg/mL | 3.3 pg/mL | 5.1 pg/mL | 3.3 pg/mL | 0.0406 nM | 53.8 fold | 120000 gMFI | 19000 RLU | 19000 RLU | 63.8 RU | 94.5 nM | 0.0282 s⁻¹ | 298000 M⁻¹ s⁻¹ | 0.4 min |  |  |  |
| B4 | 61% |  | 9.6 pg/mL | 1 pg/mL | 7.8 pg/mL | 1 pg/mL |  | 44.7 fold | 100000 gMFI | 34300 RLU | 29800 RLU | 35.1 RU | 170 nM | 0.0902 s⁻¹ | 530000 M⁻¹ s⁻¹ | 0.1 min | 14.8 nM |  |  |
| B5 | 33% |  | 7.2 pg/mL | 5.1 pg/mL | 45.8 pg/mL | 5.1 pg/mL |  | 22.9 fold | 52000 gMFI | 35900 RLU | 562000 RLU | 25.4 RU | 128 nM | 0.0948 s⁻¹ | 742000 M⁻¹ s⁻¹ | 0.1 min |  | 926 pM | 558 pM |
| B6 |  |  | 11.3 pg/mL | 2.5 pg/mL | 10.3 pg/mL | 2.5 pg/mL |  |  |  | 18500 RLU | 18500 RLU |  |  |  |  |  |  |  |  |
